The text below walks through data of US20180217132, “MEASUREMENT METHOD AND MEASUREMENT DEVICE” (KYOCERA CORPORATION, published 2018).

The data set has as its target Hemoglobin A0 (HbA0) (UniProt P69905;P68871 P69905:2-142,P68871:2-147). Briefly: SPR; Biacore T200, HBS-P + 1 mM MgCl2 pH 7.4; method of Kd not explicitly stated. The settings on record: tags: none; denatured.

Hemoglobin A0 (HbA0), sequence (P69905 2-142, chain 1 of 2): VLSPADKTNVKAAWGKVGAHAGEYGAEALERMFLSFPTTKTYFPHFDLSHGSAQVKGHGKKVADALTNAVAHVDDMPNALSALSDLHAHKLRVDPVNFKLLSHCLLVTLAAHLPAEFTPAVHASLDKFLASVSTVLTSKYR
Hemoglobin A0 (HbA0), sequence (P68871 2-147, chain 2 of 2): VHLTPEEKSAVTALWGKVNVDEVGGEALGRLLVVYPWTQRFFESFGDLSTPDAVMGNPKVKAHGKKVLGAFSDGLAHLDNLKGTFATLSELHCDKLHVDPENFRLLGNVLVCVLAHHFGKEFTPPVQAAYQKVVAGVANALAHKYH

B1: RNA aptamer A (ssRNA)
RNA: GGGAUAGGAUCCACAUCUACGUAUUACGGCAUUAUUAGGACCAAUGCUGAGUACGGCGCACAGCUUUUUUCACUGCAGACUUGACGAAGCUUAAAAAAAAAAAAAAAAAA
modifications: 2'-F at A and U
As for B1, the Kd (commonly a measure of binding affinity in units of concentration) worked out at 160 nM.
